In the supplement of paper PMC10567573 one finds protein stability index data, which are given here for 94 variants.

B1: RPAIN (parent)
chain: ISEYEKSLQFDEKCLSIMLAEWEA
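Note: lentivirally expressed fusions sorted by FACS into six bins by GFP to DsRed ratio, PSI derived from sequencing read proportions per bin multiplied by bin number.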

Variants of B1 are the subject of the data set. The experiment in a line: protein stability index of a GFP-peptide fusion (GPS, HEK-293T) (PSI 1-6); higher = more stable. The conditions noted are these: c terminus: a fixed tail appended.
As for ISEYEKSLQFDEKCESIMLAEWEA [L15E], the protein stability index was 4.41.
Take ISEYEKSLQFDEKCNSIMLAEWEA [L15N]: the protein stability index came to 3.92.
Turning to ISEYEKSLQFDEKCFSIMLAEWEA [L15F], the protein stability index was found to be 2.21.
Take ISEYEKSLQFDEKCGSIMLAEWEA [L15G]: the protein stability index was 3.62.
Turning to ISEYEKSLQFDEKCRSIMLAEWEA [L15R], the protein stability index was 4.1.
In the case of ISEYEKSLQFDEKCASIMLAEWEA [L15A], the protein stability index turned out to be 3.74.
Consider ISEYEKSLQFDEKCWSIMLAEWEA [L15W], for which the protein stability index worked out at 2.86.
Then ISEYEKSLQFDEKCTSIMLAEWEA [L15T], with 3.73.
Regarding ISEYEKSLQFDEKCVSIMLAEWEA [L15V], the protein stability index came to 2.09.
For ISEYEKSLQFDEKCQSIMLAEWEA [L15Q], the protein stability index was 3.73.
For ISEYEKSLQFDEKCLSIMPAEWEA [L19P], the protein stability index was found to be 4.37.
On to ISEYEKSLQFDEKCLSIMVAEWEA [L19V], for which the protein stability index came out at 2.64.
Regarding ISEYEKSLQFDEKCLSIMIAEWEA [L19I], the protein stability index stood at 2.77.
The figure for ISEYEKSLQFDEKCLSIMHAEWEA [L19H] is 3.27.
ISEYEKSLQFDEKCLSIMCAEWEA [L19C]: the protein stability index turned out to be 2.79.
In the case of ISEYEKSLQFDEKCLSIMKAEWEA [L19K], the protein stability index was determined as 3.58.
Take ISEYEKSLQFPEKCLSIMLAEWEA [D11P]: the protein stability index amounted to 1.99.
Turning to ISEYEKSLQFKEKCLSIMLAEWEA [D11K], the protein stability index is 1.95.
For the variant ISEYEKSLQFLEKCLSIMLAEWEA [D11L], the protein stability index turned out to be 3.63.
Turning to ISEYEKRLQFDEKCLSIMLAEWEA [S7R], the protein stability index came to 1.69.
As to ISEYEKFLQFDEKCLSIMLAEWEA [S7F], the protein stability index amounted to 2.08.
ISEYEKPLQFDEKCLSIMLAEWEA [S7P]: the protein stability index was determined as 1.47.
With ISEYEKMLQFDEKCLSIMLAEWEA [S7M], the protein stability index stood at 1.56.
As for ISEYEKKLQFDEKCLSIMLAEWEA [S7K], the protein stability index is 1.38.
Regarding ISEYEKLLQFDEKCLSIMLAEWEA [S7L], the protein stability index stood at 1.44.
The figure for ISEYEKNLQFDEKCLSIMLAEWEA [S7N] is 1.8.
For the variant ISEYEKWLQFDEKCLSIMLAEWEA [S7W], the protein stability index worked out at 2.
Regarding ISEYEKSNQFDEKCLSIMLAEWEA [L8N], the protein stability index came out at 2.71.
Take ISEYEKSAQFDEKCLSIMLAEWEA [L8A]: the protein stability index stood at 2.63.
In the case of ISEYEKSCQFDEKCLSIMLAEWEA [L8C], the protein stability index stood at 1.96.
The figure for ISEYEKSHQFDEKCLSIMLAEWEA [L8H] is 2.65.
As for ISEYEKSPQFDEKCLSIMLAEWEA [L8P], the protein stability index worked out at 2.97.
The figure for ISEYEKSMQFDEKCLSIMLAEWEA [L8M] is 2.29; for ISEYEKSQQFDEKCLSIMLAEWEA [L8Q] it is 3.1; for ISEYEKSIQFDEKCLSIMLAEWEA [L8I] it is 2.79.
As for ISEYEKSTQFDEKCLSIMLAEWEA [L8T], the protein stability index is 3.08.
Regarding ISRYEKSLQFDEKCLSIMLAEWEA [E3R], the protein stability index worked out at 2.4.
Turning to ISAYEKSLQFDEKCLSIMLAEWEA [E3A], the protein stability index was determined as 2.31.
For ISNYEKSLQFDEKCLSIMLAEWEA [E3N], the protein stability index is 3.69.
Turning to ISQYEKSLQFDEKCLSIMLAEWEA [E3Q], the protein stability index turned out to be 2.05.
As to ISWYEKSLQFDEKCLSIMLAEWEA [E3W], the protein stability index came to 3.76.
For the variant ISYYEKSLQFDEKCLSIMLAEWEA [E3Y], the protein stability index turned out to be 3.23.
Consider ISPYEKSLQFDEKCLSIMLAEWEA [E3P], for which the protein stability index worked out at 1.42.
With ISMYEKSLQFDEKCLSIMLAEWEA [E3M], the protein stability index turned out to be 1.82.
Consider ISHYEKSLQFDEKCLSIMLAEWEA [E3H], for which the protein stability index stood at 1.99.
On to ISEYEKSLQFDEMCLSIMLAEWEA [K13M], for which the protein stability index is 1.34.
For the variant ISEYEKSLQFDEYCLSIMLAEWEA [K13Y], the protein stability index worked out at 3.37.
Take ISEYEKSLQFDESCLSIMLAEWEA [K13S]: the protein stability index came out at 2.25.
As for ISEYEKSLQFDEPCLSIMLAEWEA [K13P], the protein stability index worked out at 2.72.
Consider ISEYEKSLQFDEECLSIMLAEWEA [K13E], for which the protein stability index was determined as 1.71.
Turning to ISEYEKSLQFDENCLSIMLAEWEA [K13N], the protein stability index stood at 1.19.
Consider ISEYEKSLQFDEHCLSIMLAEWEA [K13H], for which the protein stability index was found to be 1.73.
For ISEYEKSLQFDEKCLSIILAEWEA [M18I], the protein stability index amounted to 1.4.
As for ISEYEKSLQFDEKCLSILLAEWEA [M18L], the protein stability index came to 2.18.
Take ISEYEKSLQFDEKCLSIFLAEWEA [M18F]: the protein stability index was determined as 2.5.
For the variant ISEYEKSLQFDEKCLSIYLAEWEA [M18Y], the protein stability index amounted to 2.39.
On to ISEYEKSLQFDEKCLSINLAEWEA [M18N], for which the protein stability index is 2.13.
In the case of ISEYEKSLQFDEKCLSIWLAEWEA [M18W], the protein stability index is 2.52.
The figure for ISEYEKSLQFDEKCLSIPLAEWEA [M18P] is 4.27.
As to ISEYEKSLQFDEKCLSIELAEWEA [M18E], the protein stability index came to 1.84.
ISEYEKSLQFDEKCLSIRLAEWEA [M18R]: the protein stability index worked out at 1.93.
As to ISEYEKSLEFDEKCLSIMLAEWEA [Q9E], the protein stability index was determined as 1.78.
The figure for ISEYEKSLFFDEKCLSIMLAEWEA [Q9F] is 2.88; for ISEYEKSLKFDEKCLSIMLAEWEA [Q9K] it is 2.23.
For ISEYEKSLRFDEKCLSIMLAEWEA [Q9R], the protein stability index is 2.08.
On to ISEYEKSLHFDEKCLSIMLAEWEA [Q9H], for which the protein stability index was determined as 1.85.
As to ISEYEKSLPFDEKCLSIMLAEWEA [Q9P], the protein stability index was found to be 1.95.
With ISEYEKSLIFDEKCLSIMLAEWEA [Q9I], the protein stability index was found to be 1.96.
The figure for ISEYEKSLQFDEKCLSVMLAEWEA [I17V] is 2.38.
As for ISEYEKSLQFDEKCLSDMLAEWEA [I17D], the protein stability index was found to be 2.47.
On to ISEYEKSLQFDEKCLSCMLAEWEA [I17C], for which the protein stability index worked out at 1.63.
With ISEYEKSLQFDEKCLSMMLAEWEA [I17M], the protein stability index is 1.97.
The figure for ISEYEKSLQFDEKCLSFMLAEWEA [I17F] is 1.8; for ISEYEKSLQFDEKCLSTMLAEWEA [I17T] it is 2.12; for ISEYEKSLQFDEKCLSNMLAEWEA [I17N] it is 2.48.
Then ISEYEKSLQFDEKCLSEMLAEWEA [I17E], with 2.16.
For ISEYEKSLQFDEKCLKIMLAEWEA [S16K], the protein stability index stood at 2.17.
Consider ISEYEKSLQFDEKCLAIMLAEWEA [S16A], for which the protein stability index is 2.32.
As to ISEYEKSLQFDEKCLDIMLAEWEA [S16D], the protein stability index worked out at 2.08.
As to ISEYEKSLQFDEKCLQIMLAEWEA [S16Q], the protein stability index amounted to 2.11.
ISEYEKSLQFDEKCLHIMLAEWEA [S16H]: the protein stability index stood at 2.56.
The figure for ISEYEKSLQFDEKCLMIMLAEWEA [S16M] is 1.49; for ISEYEKSLQFDEKCLSIMLAEWMA [E23M] it is 2.36; for ISEYEKSLQFDEKCLSIMLAEWVA [E23V] it is 3.22.
ISEYEKSLQFDEKCLSIMLAEWAA [E23A]: the protein stability index amounted to 3.07.
For the variant ISEYEKSLQFDEKCLSIMLAEWIA [E23I], the protein stability index amounted to 2.4.
On to ISEYEKSLQFDEKCLSIMLAEWPA [E23P], for which the protein stability index was found to be 1.65.
Regarding ISEYEKSLQFDEKCLSIMLAEWSA [E23S], the protein stability index is 2.66.
On to ISEYEKSLQFDEKCLSIMLAEWKA [E23K], for which the protein stability index turned out to be 2.53.
With ISEYEKSLQFDEKCLSIMLAEWLA [E23L], the protein stability index turned out to be 1.83.
Regarding ISEYEKSLQFDEKCLSIMLAEWTA [E23T], the protein stability index was 1.76.
ISEYEKSLQFDEKCLSIMLAEWHA [E23H]: the protein stability index turned out to be 2.59.
Take ISEYEKSLQFDEKCLSIMLAEWFA [E23F]: the protein stability index turned out to be 2.53.
The figure for ISEYEKSLQFDEKCLSIMLAKWEA [E21K] is 1.47.
